Consider 23 sequences from the Immune Epitope Database (IEDB).

The target of experiment [1] is HLA-A*02:01. Put plainly: IEDB peptide-MHC binding, cellular MHC/competitive/fluorescence; ≥ and ≤ were set here for values at or beyond the usual limits of such assays.
In another experiment the target is HLA-A*02:06. Described as above.
In another experiment the target is HLA-A*02:02. The experiment can be described thus: IEDB peptide-MHC binding, purified MHC/competitive/radioactivity; ≥ and ≤ were set here for values at or beyond the usual limits of such assays.
The target in another experiment is HLA-A*02:03. The experiment is described as above.
The target of another experiment is HLA-A*68:02. The description is as above.
For experiment [2], the target named is HLA-A*02:01. The experiment is described as above.
The mark [3] stands for this setting: source organism: Mammarenavirus whitewaterense.
Where [4] appears, read: source organism: Vaccinia virus WR.
[5] abbreviates: source organism: Mammarenavirus lassaense.
Where [6] appears, read: source organism: Mammarenavirus choriomeningitidis.
[7] abbreviates: source organism: Mammarenavirus brazilense.
Where [8] appears, read: source organism: Hepacivirus hominis.

For KTVAGSFAS, the IC50 (as a rule, the concentration that inhibits the measured activity by half) in the experiment with HLA-A*02:01 [1] (setting [3]) worked out at 5560 nM; with HLA-A*02:06 (setting [3]), 9140 nM; in the experiment with HLA-A*02:02 (setting [3]) it was 1600 nM; with HLA-A*02:03 (setting [3]) it was 3820 nM; with HLA-A*68:02 (setting [3]), 2990 nM.
KVYNGIFVDT: the IC50 was 11800 nM with HLA-A*02:01 [1] (setting [4]); 16400 nM with HLA-A*02:06 (setting [4]); 111 nM with HLA-A*02:02 (setting [4]); 1440 nM with HLA-A*02:03 (setting [4]); 1380 nM with HLA-A*68:02 (setting [4]).
With LAEHISDSI, the IC50 worked out at 6050 nM in the experiment with HLA-A*02:01 [1] (setting [4]); 19300 nM with HLA-A*02:06 (setting [4]); 45 nM with HLA-A*02:02 (setting [4]); 731 nM with HLA-A*02:03 (setting [4]); 428 nM in the experiment with HLA-A*68:02 (setting [4]).
For LINLVQYRI, in that order: 5900 nM, 5340 nM, 311 nM, 583 nM and 1730 nM.
As to LNQAVNNLV, the IC50 was 7960 nM in the experiment with HLA-A*02:01 [1] (setting [5]); 13600 nM in the experiment with HLA-A*02:06 (setting [5]); 511 nM with HLA-A*02:02 (setting [5]); 3350 nM in the experiment with HLA-A*02:03 (setting [5]); 4880 nM with HLA-A*68:02 (setting [5]).
LNQTVYSLV: the half-maximal inhibitory concentration (IC50) with HLA-A*02:01 [1] (setting [6]) came out at 9250 nM; in the experiment with HLA-A*02:06 (setting [6]), 5100 nM; with HLA-A*02:02 (setting [6]), 3330 nM; in the experiment with HLA-A*02:03 (setting [6]), 1510 nM; with HLA-A*68:02 (setting [6]) it was 262 nM.
As to LRYFIMAYV, the IC50 came out at 12700 nM in the experiment with HLA-A*02:01 [1] (setting [7]); 20100 nM with HLA-A*02:06 (setting [7]); 213 nM in the experiment with HLA-A*02:02 (setting [7]); 396 nM with HLA-A*02:03 (setting [7]); 18 nM with HLA-A*68:02 (setting [7]).
With MLHNPTSET, the IC50 in the experiment with HLA-A*02:01 [1] (setting [4]) was 13700 nM; with HLA-A*02:06 (setting [4]) it was not below 70000 nM; with HLA-A*02:02 (setting [4]) it was 4210 nM; in the experiment with HLA-A*02:03 (setting [4]), 184 nM; in the experiment with HLA-A*68:02 (setting [4]), 1570 nM.
Regarding MLKLFTHDIM, the half-maximal inhibitory concentration (IC50) with HLA-A*02:06 (setting [4]) was determined as 20300 nM; in the experiment with HLA-A*02:01 [2] (setting [4]), 1380 nM; in the experiment with HLA-A*02:02 (setting [4]), 85 nM; with HLA-A*02:03 (setting [4]), 93 nM; with HLA-A*68:02 (setting [4]), 2000 nM.
As to MTSTRTIIL, the half-maximal inhibitory concentration (IC50) turned out to be 6470 nM with HLA-A*02:01 [1] (setting [4]); 6790 nM with HLA-A*02:06 (setting [4]); 1340 nM with HLA-A*02:02 (setting [4]); 840 nM with HLA-A*02:03 (setting [4]); 507 nM with HLA-A*68:02 (setting [4]).
With NASKTINAL, the concentration for half-maximal inhibition (IC50) in the experiment with HLA-A*02:01 [1] (setting [4]) is 26800 nM; in the experiment with HLA-A*02:06 (setting [4]) it was 6110 nM; with HLA-A*02:02 (setting [4]) it was 117 nM; with HLA-A*02:03 (setting [4]) it was 708 nM; with HLA-A*68:02 (setting [4]), 52 nM.
In the case of NTNQGNILM, the half-inhibitory concentration (IC50) with HLA-A*02:06 (setting [4]) came to 5940 nM; with HLA-A*02:01 [2] (setting [4]), 4580 nM; with HLA-A*02:02 (setting [4]) it was 1700 nM; with HLA-A*02:03 (setting [4]), 1150 nM; with HLA-A*68:02 (setting [4]) it was 664 nM.
As to RVKQWVMDT, the IC50 is 20300 nM with HLA-A*02:01 [1] (setting [4]); 13500 nM with HLA-A*02:06 (setting [4]); 3630 nM in the experiment with HLA-A*02:02 (setting [4]); 3.6 nM with HLA-A*02:03 (setting [4]); 603 nM in the experiment with HLA-A*68:02 (setting [4]).
Consider RVKQWVMDTL, for which the 50% inhibitory concentration (IC50) was determined as 21400 nM with HLA-A*02:01 [1] (setting [4]); 27800 nM in the experiment with HLA-A*02:06 (setting [4]); 3480 nM with HLA-A*02:02 (setting [4]); 689 nM in the experiment with HLA-A*02:03 (setting [4]); 155 nM with HLA-A*68:02 (setting [4]).
The corresponding values for RVNDLNRMPT are 7200 nM, 7720 nM, 1360 nM, 1440 nM and 631 nM.
Take SLCPTKKLV: the half-maximal inhibitory concentration (IC50) in the experiment with HLA-A*02:06 (setting [4]) was 11900 nM; in the experiment with HLA-A*02:01 [2] (setting [4]), 2660 nM; with HLA-A*02:02 (setting [4]), 3160 nM; in the experiment with HLA-A*02:03 (setting [4]), 2660 nM; with HLA-A*68:02 (setting [4]), 1040 nM.
For TIAVSVYGAI, the IC50 in the experiment with HLA-A*02:06 (setting [4]) came out at 5390 nM; with HLA-A*02:01 [2] (setting [4]), 2560 nM; with HLA-A*02:02 (setting [4]), 1550 nM; in the experiment with HLA-A*02:03 (setting [4]) it was 582 nM; with HLA-A*68:02 (setting [4]), 618 nM.
On to TLFIDRGSI, for which the concentration for half-maximal inhibition (IC50) with HLA-A*02:01 [1] (setting [4]) was 17700 nM; with HLA-A*02:06 (setting [4]), not below 70000 nM; with HLA-A*02:02 (setting [4]), 2100 nM; in the experiment with HLA-A*02:03 (setting [4]), 802 nM; with HLA-A*68:02 (setting [4]), 181 nM.
TLFYCDERDA: the IC50 with HLA-A*02:06 (setting [4]) was found to be 19500 nM; in the experiment with HLA-A*02:01 [2] (setting [4]), 238 nM; with HLA-A*02:02 (setting [4]), 271 nM; in the experiment with HLA-A*02:03 (setting [4]), 2140 nM; with HLA-A*68:02 (setting [4]) it was 4920 nM.
With TMKAIEKDRL, the IC50 with HLA-A*02:01 [1] (setting [4]) was 17500 nM; with HLA-A*02:06 (setting [4]), not below 70000 nM; in the experiment with HLA-A*02:02 (setting [4]), 171 nM; with HLA-A*02:03 (setting [4]), 1060 nM; with HLA-A*68:02 (setting [4]) it was 1570 nM.
The corresponding values for VISTIANSNI are 7800 nM, 5160 nM, 282 nM, 845 nM and 788 nM.
For the sequence VLIVMLLFA, the IC50 with HLA-A*02:06 (setting [8]) was 8420 nM; with HLA-A*02:01 [2] (setting [8]), 2360 nM; in the experiment with HLA-A*02:02 (setting [8]), 1620 nM; with HLA-A*02:03 (setting [8]), 435 nM; in the experiment with HLA-A*68:02 (setting [8]), 4550 nM.
YVEHDPRLV: the half-inhibitory concentration (IC50) with HLA-A*02:06 (setting [4]) turned out to be 22600 nM; with HLA-A*02:01 [2] (setting [4]), 4740 nM; with HLA-A*02:02 (setting [4]) it was 1180 nM; with HLA-A*02:03 (setting [4]), 711 nM; with HLA-A*68:02 (setting [4]), 1930 nM.
